The values that follow come from paper PMC6804595 (2018).

Residue numbers refer to the chain shown, from its start.

Common to all, as to assay: SPR
(SPR reads the build-up and loss of mass on a sensor chip optically.)

Experiment [1] deals with CD147 V61A.
The target in experiment [2] is T1, CD147 D65A (human).
T1 chain: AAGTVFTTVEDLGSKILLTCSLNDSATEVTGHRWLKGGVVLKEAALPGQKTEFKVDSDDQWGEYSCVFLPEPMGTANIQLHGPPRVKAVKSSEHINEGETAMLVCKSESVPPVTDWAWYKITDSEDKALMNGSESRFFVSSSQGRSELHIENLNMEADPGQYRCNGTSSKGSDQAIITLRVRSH

The target in experiment [3] is T2, CD147 K63A (human).
T2 chain: T1 chain with K42A, A44D

Experiment [4] addresses T3, CD147 L62A (human).
T3 chain: T1 chain with L41A, A44D

The target of experiment [5] is T4, CD147 K63A/D65A double mutant (human).
T4 chain: T1 chain with K42A

Experiment [6] deals with T5, ectodomain of CD147 (CD147_(ecto)), wild type (human).
T5 chain: T1 chain with A44D

Experiment [7] has as its target T6, CD147 E64A (human).
T6 chain: T1 chain with E43A, A44D

B1: anti-CD147 mAb 5A12 (antibody, V domains shown)
VH: EVKLEESGGGLVQPGGSMKLSCVASGFTFSNYWMHWVRQSPEKGLEWVAEIRLKSINYATHYAESVKGRFTISRDDSKSSVYLQMNNLRTEDTGIYYCTSYDYEYWGQGTLITVSA
VL: NIVMTQSPKSMSMSVGERVTLSCKASEIVGTYVSWYQQKPEQSPKLLIYGASNRYTGVPDRFTGSGSATDFTLTISSVQAEDLADYHCGQSYSYPFTFGSGTKLEIK
Turning to B1, the dissociation constant Kd in experiment [1] came out at 0.97 nM; in experiment [2], 12.7 nM; in experiment [3], 576 nM; in experiment [4] it was 2.71 nM; in experiment [5], 115 nM; in experiment [6] it was 0.566 nM. In addition, in experiment [7], the dissociation constant (Kd) worked out at 7.07 nM.

The Kd is the equilibrium constant for the complex coming apart. A higher Kd goes with lower affinity.
